Test results taken from IntAct's records for PubMed 16595635.

Experiments:
tnfl6_human FASLG [1] = target: tnfl6_human FASLG (UniProt P48023)
tnfl6_human FASLG [2] = target: tnfl6_human FASLG (UniProt P48023); remark: listed apart in the source
tnfl6_human FASLG [3] = target: tnfl6_human FASLG (UniProt P48023); remark: listed apart in the source

Sequence of UniProt P48023 (P48023 whole entry): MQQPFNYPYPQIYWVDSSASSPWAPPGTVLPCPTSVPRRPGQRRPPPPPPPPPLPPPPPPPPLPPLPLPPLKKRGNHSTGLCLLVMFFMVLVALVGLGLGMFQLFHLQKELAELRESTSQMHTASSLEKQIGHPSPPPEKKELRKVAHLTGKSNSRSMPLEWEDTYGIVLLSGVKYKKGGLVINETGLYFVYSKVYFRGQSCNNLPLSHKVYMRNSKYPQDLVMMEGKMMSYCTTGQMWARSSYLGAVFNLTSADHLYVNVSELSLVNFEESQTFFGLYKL

effect of a mutation on the interaction (tnfl6_human FASLG [1])	effect of a mutation on the interaction (tnfl6_human FASLG [2])	effect of a mutation on the interaction (tnfl6_human FASLG [3])	Substance
disrupting interaction strength	disrupting interaction strength		SH2/SH3 adapter protein NCK1 (Homo sapiens) (from UniProt P16333-1) W38K;W143K;W229K
		disrupting interaction strength	SH2/SH3 adapter protein NCK1 (Homo sapiens) (from UniProt P16333-1) W229K
		disrupting interaction strength	SH2/SH3 adapter protein NCK1 (Homo sapiens) (from UniProt P16333-1) W143K
